In paper doi:10.1101/2025.08.07.668011:
Where “and” joins values, the source holds several entries; their conditions need not be identical. Identical values can stand only once. Each block holds one substance with its values, some of them ahead of it.

Legend:
Assay in all cases: high-speed atomic force microscopy
[1] = target: EML4-ALK v3 with the subdomain region (191-217 aa residues) deleted (ddv3) (human) (UniProt Q9UM73)
[2] = target: EML4-ALK variant-5 (v5a, E2:A20) (human) (UniProt Q9UM73)
[3] = target: EML4-ALK variant-3 (v3b, E6:A20) (human) (UniProt Q9UM73)

ratio of dimers [1]: 28.1% | ratio of trimers [1]: 7.3% | stoichiometry N [1]: 2 and 3
Substance: EML4-ALK v3 with the subdomain region (191-217 aa residues) deleted (ddv3) (from UniProt Q9UM73 1058-1620) (natural protein)

ratio of dimers [2]: 29.8% | ratio of trimers [2]: 10.2% | stoichiometry N [2]: 2 and 3
Substance: EML4-ALK variant-5 (v5a, E2:A20) (from UniProt Q9UM73 1058-1620) (natural protein)

ratio of dimers [3]: 38.5% | ratio of trimers [3]: 9.3% | stoichiometry N [3]: 2 and 3
Substance: EML4-ALK variant-3 (v3b, E6:A20) (from UniProt Q9UM73 1058-1620) (natural protein)
